The Human Domainome abundance scans (Beltran et al. 2025)
± gives the uncertainty stated by the source.

B1: POU domain, class 2, transcription factor 1, residues 285 to 354; numbered along this chain, P14859 (parent)
chain: LEELEQFAKTFKQRRIKLGFTQGDVGLAMGKLYGNDFSQTTISRFEALNLSFKNMCKLKPLLEKWLNDAE
B2: Serine/threonine-protein kinase A-Raf, residues 21 to 89; numbered along this chain, P10398 (parent)
chain: VKVYLPNKQRTVVTVRDGMSVYDSLDKALKVRGLNQDCCVVYRLIKGRKTVTAWDTAIAPLDGEELIVE

Variants of: B1
Experiment: abundance fitness (aPCA) (normalised: wild type 0, dead -1); higher = more abundant; growth selection in yeast, the domain comes from the species named
Conditions: Homo sapiens

Variant | abundance fitness
N67S | -0.054 ± 0.27
N67D | 0.024 ± 0.19
L61W | -0.038 ± 0.035
L61Q | -0.053 ± 0.047
L61S | -0.078 ± 0.033
L61T | -0.026 ± 0.053
L61R | 0.008 ± 0.047
L61V | -0.008 ± 0.025
E70R | -0.36 ± 0.32
E70K | 0.011 ± 0.12
E70P | -0.349 ± 0.23
E70G | -0.13 ± 0.26
E70V | -0.083 ± 0.087
E70D | -0.029 ± 0.031
E70S | 0.076 ± 0.22
E70I | -0.048 ± 0.16
E70W | 0.071 ± 0.15
E63A | 0.07 ± 0.081
E63G | -0.023 ± 0.11
E63L | 0.024 ± 0.046
E63W | -0.075 ± 0.15
E63R | -0.199 ± 0.1

Variant | abundance fitness
E63S | -0.082 ± 0.11
E63M | -0.031 ± 0.048
E63N | -0.199 ± 0.26
E63K | -0.126 ± 0.09
E63P | -0.571 ± 0.19
E63V | -0.095 ± 0.086
E63I | -0.22 ± 0.13
E63T | -0.1 ± 0.12
E63Q | -0.07 ± 0.06
E63D | -0.45 ± 0.36
K64P | -0.387 ± 0.036
K64S | 0.011 ± 0.027
K64N | -0.022 ± 0.043
K64C | -0.143 ± 0.068
K64E | -0.02 ± 0.029
K64H | -0.1 ± 0.058
K64W | -0.113 ± 0.033
K64R | -0.019 ± 0.028
K64A | -0.036 ± 0.025
K64Q | -0.011 ± 0.037
K64T | -0.04 ± 0.03
K64Y | -0.225 ± 0.058

Variant | abundance fitness
K64D | -0.037 ± 0.05
K64G | -0.026 ± 0.03
D68M | -0.034 ± 0.022
D68W | -0.086 ± 0.028
D68C | -0.106 ± 0.058
D68N | 0.006 ± 0.024
D68S | 0.026 ± 0.029
D68Y | -0.063 ± 0.033
D68F | -0.011 ± 0.08
D68H | -0.012 ± 0.05
D68G | -0.011 ± 0.019
D68Q | 0.001 ± 0.023
D68A | -0.024 ± 0.023
D68T | -0.048 ± 0.024
D68R | -0.022 ± 0.021
D68V | -0.047 ± 0.027
D68K | -0.018 ± 0.016
D68P | -0.419 ± 0.035
W65P | -0.693 ± 0.086
W65V | -0.262 ± 0.073
W65T | -0.294 ± 0.045
W65Y | -0.275 ± 0.25

Variant | abundance fitness
W65F | 0.009 ± 0.18
W65E | -0.825 ± 0.081
W65L | -0.305 ± 0.07
W65Q | -0.594 ± 0.046
W65R | -0.753 ± 0.035
W65C | -0.35 ± 0.17
W65S | -0.728 ± 0.062
W65D | -0.968 ± 0.17
W65H | -0.5 ± 0.18
W65G | -0.555 ± 0.033
W65N | -1.05 ± 0.31
W65I | -0.633 ± 0.44
W65A | -0.432 ± 0.043
W65K | -0.961 ± 0.11
W65M | -0.22 ± 0.073
L62V | -0.102 ± 0.026
L62E | -0.914 ± 0.083
L62D | -0.354 ± 0.15
L62F | -0.017 ± 0.032
L62G | -0.545 ± 0.067
L62I | -0.091 ± 0.041
L62P | -0.699 ± 0.064

Variant | abundance fitness
L62T | -0.406 ± 0.041
L62A | -0.149 ± 0.034
L62W | -1.08 ± 0.17
L62M | -0.006 ± 0.024
L62S | -0.567 ± 0.031
L62C | -0.18 ± 0.14
L62Y | -0.069 ± 0.041
L62K | -0.937 ± 0.06
L62Q | -0.913 ± 0.069
L66N | -0.848 ± 0.17
L66Y | -0.11 ± 0.084
L66I | -0.017 ± 0.046
L66E | -0.433 ± 0.039
L66A | -0.037 ± 0.038
L66S | -0.167 ± 0.039
L66M | 0.01 ± 0.033
L66Q | -0.279 ± 0.056
L66V | -0.003 ± 0.023
L66F | -0.258 ± 0.057
L66K | -0.476 ± 0.028
L66R | -0.667 ± 0.046
L66C | -0.071 ± 0.068

Variant | abundance fitness
L66D | -0.854 ± 0.073
L66W | -0.355 ± 0.043
L66H | -0.474 ± 0.11
L66T | -0.206 ± 0.052
L66G | -0.411 ± 0.033
A69M | 0.003 ± 0.02
A69Y | -0.038 ± 0.021
A69N | -0.04 ± 0.023
A69H | -0.04 ± 0.028
A69R | 0.013 ± 0.022
A69K | 0.004 ± 0.024
A69P | -0.112 ± 0.023
A69C | -0.001 ± 0.022
A69T | -0.012 ± 0.019
A69I | -0.027 ± 0.021
A69S | -0.004 ± 0.018
A69E | 0.016 ± 0.04
A69L | -0.064 ± 0.02
A69Q | 0.057 ± 0.029
A69V | 0.014 ± 0.024
A69W | -0.078 ± 0.027

Variants of: B2
Experiment: as above
Conditions: Homo sapiens

Variant | abundance fitness
K2E | -0.379 ± 0.06
K2V | -0.118 ± 0.067
K2F | -0.466 ± 0.33
K2P | -0.528 ± 0.12
K2D | -0.416 ± 0.26
K2R | 0.038 ± 0.057
K2G | -0.37 ± 0.079
K2Y | -0.313 ± 0.19
K2W | -0.314 ± 0.15
K2T | 0.057 ± 0.065
K2S | -0.172 ± 0.091
K2Q | -0.32 ± 0.062
K2L | -0.349 ± 0.09
K2N | -0.139 ± 0.17
K2A | -0.242 ± 0.082
K2M | -0.217 ± 0.11
V3I | -0.298 ± 0.16
V3K | -0.622 ± 0.11

Variant | abundance fitness
V3M | -0.814 ± 0.18
V3D | -0.794 ± 0.2
V3C | -0.274 ± 0.12
V3A | -0.672 ± 0.086
V3G | -0.966 ± 0.18
V3F | -0.552 ± 0.092
V3L | -0.191 ± 0.037
V3E | -0.745 ± 0.12
V1E | -0.833 ± 0.22
V1A | -0.684 ± 0.21
V1G | -0.744 ± 0.17
V1C | -0.184 ± 0.28
V1M | -0.141 ± 0.1
V1S | -0.528 ± 0.25
V1F | -0.358 ± 0.21
V1R | -0.487 ± 0.48
V1I | -0.096 ± 0.18
V1L | -0.076 ± 0.13
